Test results as given in patent US20080249008A1 (published 2008).

B1: EGF mutant clone 30 (soluble) (ligand)
chain: SSNSGCPLSHDGYCLHDGVCMYIEALDRYACNCVVGYAGERCQYRDLKWWELR
notes: Produced solubly
B2: EGF mutant clone 121 (competitor on NR6 cells) (ligand)
chain: NSDPKCPLSHEGYCLNDGVCMYIGTLDRYACNCVVGYVGERCQYRDLKWLALR

Assays:
[1] = target: T1, EGFR on NR6 fibroblast cells (UniProt P00533 25-1210, limits assumed); test: competition with Alexa-488 labeled wt EGF on NR6 fibroblast cells, flow cytometry, 2 hr at 4 C
T1 construct: whole, on cells; also called fibroblast cells expressing EGFR; NR6 fibroblasts
Description: (§1) Fluorescence intensity of cell surface labeling was measured by flow cytometry.

[2] = target: T1, EGFR on NR6 fibroblast cells; test: competition for binding to fibroblast cells, flow cytometry
Description: as §1

Row | Binder | Kd [1] | IC50 [2]
1 | B1 | 0.56 nM | –
2 | B2 | – | 0.14 nM
